The values below come from PMC6056074.

The target of the test is HLA-B*44:05 (human). As to the kind of experiment: flow cytometry on cells; peptide receptivity of surface HLA-B on TAP-sufficient CEM cells: 100 μM peptide in medium at 26°C for 2h, then 20 μg/ml brefeldin A at 37°C for 2h; W6/32 staining, signal of cells without exogenous HLA-B subtracted; read-out (MFI with peptide - MFI without peptide)/MFI with peptide*100.

Regarding EEFGRAFSF [… (EF10), B*44:05-restricted epitope], the percent of cell surface HLA-B that is peptide receptive came out at 5%.
